Measurements taken from doi:10.1101/2020.01.09.899237 (bioRxiv, 2020).

B1: DnaJB8-mClover3 fusion protein (natural protein, human, UniProt Q8NHS0 1-232, looked up)
chain: MANYYEVLGVQASASPEDIKKAYRKLALRWHPDKNPDNKEEAEKKFKLVSEAYEVLSDSKKRSLYDRAGCDSWRAGGGASTPYHSPFDTGYTFRNPEDIFREFFGGLDPFSFEFWDSPFNSDRGGRGHGLRGAFSAGFGEFPAFMEAFSSFNMLGCSGGSHTTFSSTSFGGSSSGSSGFKSVMSSTEMINGHKVTTKRIVENGQERVEVEEDGQLKSVTVNGKEQLKWMDSK
B2: DnaJB8 (recombinant full-length wild type) (natural protein, human, UniProt Q8NHS0 1-232, looked up)
chain: B1 chain
B3: DnaJB8 C-terminal domain CTD_(170-232) (domain or fragment, human, UniProt Q8NHS0 170-232, looked up)
chain: GGSSSGSSGFKSVMSSTEMINGHKVTTKRIVENGQERVEVEEDGQLKSVTVNGKEQLKWMDSK
B4: FITC-labelled JD_(1-77) (domain or fragment)
chain: not shown
modifications: FITC-maleimide label (site not stated)

Assays:
[1] = target: the molecule itself; experiment: cross-linking
[2] = target: the molecule itself; experiment: dynamic light scattering
[3] = target: B4; experiment: fluorescence polarisation
[4] = target: B4; experiment: MST
[5] = target: HspA1A (human Hsp70) (human, UniProt P0DMV8 1-641); experiment: fluorescence polarisation
Chain of HspA1A (human Hsp70) (P0DMV8 whole entry): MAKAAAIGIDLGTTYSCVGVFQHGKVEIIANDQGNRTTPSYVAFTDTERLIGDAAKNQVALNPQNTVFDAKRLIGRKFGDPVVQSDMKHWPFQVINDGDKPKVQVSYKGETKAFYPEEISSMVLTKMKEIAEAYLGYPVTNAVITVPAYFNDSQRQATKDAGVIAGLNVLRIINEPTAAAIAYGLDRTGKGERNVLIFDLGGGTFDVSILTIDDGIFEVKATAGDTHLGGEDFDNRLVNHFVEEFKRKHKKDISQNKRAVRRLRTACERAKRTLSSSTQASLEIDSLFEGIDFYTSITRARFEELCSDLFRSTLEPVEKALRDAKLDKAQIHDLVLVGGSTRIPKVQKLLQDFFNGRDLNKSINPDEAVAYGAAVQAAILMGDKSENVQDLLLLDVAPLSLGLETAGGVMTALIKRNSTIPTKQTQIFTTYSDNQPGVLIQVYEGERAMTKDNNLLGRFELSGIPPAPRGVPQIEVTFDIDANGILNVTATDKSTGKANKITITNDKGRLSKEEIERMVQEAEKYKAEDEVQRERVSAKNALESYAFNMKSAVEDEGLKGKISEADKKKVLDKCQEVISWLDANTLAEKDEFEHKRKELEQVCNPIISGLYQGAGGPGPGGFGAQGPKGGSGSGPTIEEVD

B1
binding result [1]: binds

B2
binding result [2]: binds

B3
Kd [3]: 542 ± 71 nM | Kd [4]: 5360 ± 1150 nM

B4
Kd [5]: 257 ± 29 nM
